Source: patent publication US20190336574A1 (TRUSTEES OF PRINCETON UNIVERSITY, published 2019)

Key:
[1] = target: T1, His-SND1 (16-339), SN1/2 domains, wild type (human, UniProt Q7KZF4 16-339); assay: GST pull-down on glutathione resin, SDS-PAGE, Coomassie blue; normalised percentage of binding, mean±SEM of three experiments
T1 construct: also called His6-SND1 harboring the SN1/2 domains; not shown: N-terminal His tag (His6, His8 or His) with TEV site, pQlink vector
T1 sequence: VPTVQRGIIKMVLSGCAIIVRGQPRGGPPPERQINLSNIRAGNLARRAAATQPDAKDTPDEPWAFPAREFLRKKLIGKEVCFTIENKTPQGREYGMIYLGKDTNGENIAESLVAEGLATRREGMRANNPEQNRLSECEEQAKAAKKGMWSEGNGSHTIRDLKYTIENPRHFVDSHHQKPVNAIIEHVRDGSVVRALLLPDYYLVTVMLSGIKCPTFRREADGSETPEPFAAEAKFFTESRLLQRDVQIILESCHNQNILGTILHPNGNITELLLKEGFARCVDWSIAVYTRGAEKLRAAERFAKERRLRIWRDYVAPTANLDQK
From the text: The proteins bound to GS4B were examined on SDS-PAGE and visualized by Coomassie blue staining. […] The bound proteins were examined as in (FIG. 22A). For both (FIG. 22A) and (FIG. 22B), experiments were repeated three times; representative results are shown. The normalized percentage of binding was averaged from three experiments; mean±SEM was shown below the data. (FIG. 22C) HEK293T cells were transfected with human HA-SND1, WT Myc-MTDH or Myc-MTDH with indicated single point mutation. Lysates were immunoprecipitated with anti-Myc antibody and immunoblotted with the indicated antibodies. (FIG. 22D) HEK293T cells were transfected with human Myc-MTDH, WT HA-SND1 or mutant HA-SND1 with indicated single point mutations or deletions. Lysates were immunoprecipitated with anti-Myc and immunoblotted with the indicated antibodies.
(§1) GST-Mediated Pull-Down Assay: ˜20 μg of GST-MTDH (different truncation forms and site mutants) was bound to 10 μl of glutathione resin via GST tag. The resin was washed with 200 μl assay buffer (25 mM Tris, PH8.0, 150 mM NaCl, 3 mM DTT) three times to remove the excess unbound protein. […] The mixture was washed with 200 μl assay buffer twice before examined by SDS-PAGE, and visualized by Coomassie blue staining. The experiments were repeated 3 times and the ratio of SND1 associated with GST-MTDH was analyzed by ImageJ.
Identification of MTDH and SND1 mutants deficient in binding: To gain insight into how the interface characterized above contributes to MTDH-SND1 interaction, structure-guided mutagenesis studies were performed.

[2] = target: T1, His-SND1 (16-339), SN1/2 domains, wild …; assay: GST pull-down of His-SND1 (16-339), SDS-PAGE, Coomassie
Experimental: as §1

B1: GST-MTDH (364-582) W394A (other)
chain: YQWDVSRNQPYIDDEWSGLNGLSSADPNSDANAPAEEWGNWVDEERASLLKSQEPIPDDQKVSDDDKEKGEGALPTGKSKKKKKKKKKQGEDNSTAQDTEELEKEIREDLPVNTSKTRPKQEKAFSLKTISTSDPAEVLVKNSQPIKTLPPATSTEPSVILSKSDSDKSSSQVPPILQETDKSKSNTKQNSVPPSQTKSETSWESPKQIKKKKKARRET
notes: not shown: N-terminal GST tag with TEV site, pQlink vector
[1]
  % Maximum binding: 1%
[2]
  binding result: no binding
